Tests used:
Assay type in all cases: cell-based, human
[1] = tested on: Bcl-XL and cFlip/FLAME-1 in LNCap prostate cancer cells; experiment: Immunoblot of Bcl-XL and cFlip/FLAME-1 in LNCaP cells; conditions: following IL-4 treatment
Method: The observation that prostate and breast tumor cells treated with IL-4 display a reduced sensitivity to death induced by CD95 and chemotherapeutic drugs led us to investigate whether this cytokine would influence the expression of apoptosis regulatory genes. […] Therefore, IL-4-mediated increased survival in bladder, prostate and breast cancer cells is associated with upregulation of anti-apoptotic proteins.
(§1) Cell pellets were washed twice with cold PBS and lysed on ice for 30 minutes with 1% NP40 lysis buffer (20 mM Tris-HCl pH 7.2, 200 mM NaCl, 1% NP40) in the presence of 1 mM phenylmethylsulphonyl fluoride (PMSF) and 2 μg/ml each of aprotinin, leupeptin and pepstatin. Cell debris was removed by centrifugation at 13,000 rpm for 10 minutes at 4° C. Lysate concentration was determined using the Bio-Rad protein assay (Bio-Rad Laboratories, Richmond, Calif.). Aliquots of cell extracts containing 30 μg of total protein were resolved on 10% or 12% SDS-PAGE and transferred to a Hybond-C extra nitrocellulose membrane (Amersham Pharmacia Biotech, Piscataway, N.J.). […]

[2] = tested on: Bcl-xL and cFlip/FLAME-1 in bladder tumor cells (RT112); experiment: Western blot of apoptosis-related proteins in RT112 cells
Method: The observation that tumor cells treated with IL-4 display a reduced sensitivity to chemotherapeutic drugs led us to investigate whether this cytokine would influence the expression of apoptosis regulatory genes. Western blot analysis of apoptosis-related proteins was performed on cancer cell lines treated for 48 hours with IL-4 as compared to untreated or IL-2-treated controls. […] The increased expression of cFlip/FLAME-1 prompted us to investigate if IL-4 could protect tumor cells from death receptor stimulation. CD95 ligand (CD95L) is one of the major effector molecules of cytotoxic T lymphocytes and NK cells.
as §1

[3] = tested on: primary breast carcinoma cells; experiment: Bcl-XL expression and chemosensitivity of primary breast carcinoma cells cultivated with or without IL-4; conditions: 6 days of in vitro culture in the presence of IL-4
Source text: To confirm that IL-4-induced upregulation of Bcl-XL is able to protect epithelial breast cells from apoptosis, freshly isolated normal breast epithelial cells were exposed to IL-4 and analyzed Bcl-XL expression and sensitivity to a panel of chemotherapeutic drugs commonly used to treat breast cancer. […] To confirm that in vivo exposure to IL-4 is responsible for high Bcl-XL expression and resistance to chemotherapy in breast cancer, Bcl-XL expression and sensitivity to apoptosis of primary breast carcinoma cells cultivated in the presence or absence of IL-4 was measured Freshly isolated breast cancer cells expressed high levels of Bcl-XL and were scarcely sensitive to chemotherapeutic drugs (FIGS. 14C and D). […] Thus, in vivo IL-4 production promotes the survival of breast cancer cells. […]
Cell pellets were washed twice with cold PBS and lysed on ice for 30 minutes with 1% NP40 lysis buffer (20 mM Tris-HCl pH 7.2, 200 mM NaCl, 1% NP40) in the presence of 1 mM phenylmethylsulphonyl fluoride (PMSF) and 2 μg/ml each of aprotinin, leupeptin and pepstatin. […] Lysate concentration was determined using the Bio-Rad protein assay (Bio-Rad Laboratories, Richmond, Calif.). […]

B1: IL-4: human recombinant IL-4 (protein, UniProt P05112 25-153, looked up)
Interleukin-4: HKCDITLQEIIKTLNSLTEQKTLCTELTVTDIFAASKNTTEKETFCRAATVLRQFYSHHEKDTRCLGATAQQFHRHKQLIRFLKRLDRNLWGLAGLNSCPVKEANQSTLENFLERLKTIMREKYSKCSS
[1]
  levels of Bcl-XL and cFlip/FLAME-1 in LNCap cells: considerably upregulated
[2]; 48 hours with IL-4
  levels of caspases and other pro- and anti-apoptotic Bcl-2 family members: remained unchanged
[2]; 48 hours with IL-4, compared to untreated or IL-2-treated controls
  levels of Bcl-xL and cFlip/FLAME-1: increased
[3]
  Bcl-XL levels in primary breast cancer cells: maintained high Bcl-XL levels
  sensitivity of primary breast cancer cells to chemotherapeutic drugs: low sensitivity to chemotherapeutic drugs

Reference: patent US7645449B2, “Sensitizing cells for apoptosis by selectively blocking cytokines” (priority 2003, dated 2010)
